The values below come from US20260176701A1 (BRIGHAM AND WOMEN S HOSPITAL, published 2026).

First the molecules themselves.
B1: anti-ORF1 Nb dimer 2 Nb2-Nb2 (MT992) (VHH)
chain: DVQLVESGGGLVQAGGSLRLSCAASGRTDDIYTMGWFRQGPGKEREFVAVISWSITRRSSITHYADSVKGRFTISGENAENTVYLQMNTLKPEDTAVYYCAAKTGYSGSMSSYQDYDSWGQGTQVTVSGGGGSGGGGSGGGGSGGGGSMADVQLVESGGGLVQAGGSLRLSCAASGRTDDIYTMGWFRQGPGKEREFVAVISWSITRRSSITHYADSVKGRFTISGENAENTVYLQMNTLKPEDTAVYYCAAKTGYSGSMSSYQDYDSWGQGTQVTVSHHHHHH
notes: Homodimeric tandem nanobody, short (GGGGS)x4 linker; also called Nb 2-2; Nb2-2 pMT992
B2: anti-ORF1 Nanobody 9 (Nb9) (VHH)
VHH: QVHLVESGGKLVQAGESLKLSCEVSGRTFSISGAGWFRQAPGKEREFVAAITWTGGYPYYDASVKGRFTISREDPDNTVYLSMNSLKPEDTAVYYCATRRAGDLDFSYAQQGRYDNWGQGTQVTVSH
notes: Llama nanobody
B3: anti-ORF1 Nanobody 5 (Nb5) (VHH)
VHH: QVQLVESGGDLVQAGGSLRLSCAVSGGTSSNYGMGWFRQAPGKEREFVSSISWSGSRTLYSDSVKGRFTISRDNAKNTVDLQMNSLKPEDTAVYYCTAVREYRDYPQRDNFDYWGQGTQVTVSH
notes: Llama nanobody; also called Clone 5; C5
B4: anti-ORF1 Nanobody 2 (Nb2) (VHH)
VHH: DVQLVESGGGLVQAGGSLRLSCAASGRTDDIYTMGWFRQGPGKEREFVAVISWSITRRSSITHYADSVKGRFTISGENAENTVYLQMNTLKPEDTAVYYCAAKTGYSGSMSSYQDYDSWGQGTQVTVSH
notes: Llama nanobody
B5: anti-ORF1 Nb dimer 4 Nb5-Nb1 (MT994) (bispecific antibody)
chain: QVQLVESGGDLVQAGGSLRLSCAVSGGTSSNYGMGWFRQAPGKEREFVSSISWSGSRTLYSDSVKGRFTISRDNAKNTVDLQMNSLKPEDTAVYYCTAVREYRDYPQRDNFDYWGQGTQVTVSGGGGSGGGGSGGGGSGGGGSMADVQLVESGGGLVQAGESLRLSCAASGRTLSSLNMAWFRQVPGKERDFVSLISRSGSTDYVHSVRGRFTISRDNAKNTVYLEMNSLKPEDTAVYYCAADDNYNGRYPFRDEYEYWGQGTQVTVSHHHHHH
notes: Heterodimeric tandem nanobody, short linker; also called Nb 5-1; Nb5-1 pMT994
B6: anti-ORF1 Nb dimer 5 Nb5-Nb2 (MT995) (bispecific antibody)
chain: QVQLVESGGDLVQAGGSLRLSCAVSGGTSSNYGMGWFRQAPGKEREFVSSISWSGSRTLYSDSVKGRFTISRDNAKNTVDLQMNSLKPEDTAVYYCTAVREYRDYPQRDNFDYWGQGTQVTVSGGGGSGGGGSGGGGSGGGGSMADVQLVESGGGLVQAGGSLRLSCAASGRTDDIYTMGWFRQGPGKEREFVAVISWSITRRSSITHYADSVKGRFTISGENAENTVYLQMNTLKPEDTAVYYCAAKTGYSGSMSSYQDYDSWGQGTQVTVSHHHHHH
notes: Heterodimeric tandem nanobody, short linker; also called Nb 5-2; Nb5-2 pMT995
B7: anti-ORF1 Nb dimer 3 Nb5-Nb5 (MT993) (bispecific antibody)
chain: QVQLVESGGDLVQAGGSLRLSCAVSGGTSSNYGMGWFRQAPGKEREFVSSISWSGSRTLYSDSVKGRFTISRDNAKNTVDLQMNSLKPEDTAVYYCTAVREYRDYPQRDNFDYWGQGTQVTVSGGGGSGGGGSGGGGSGGGGSMAQVQLVESGGDLVQAGGSLRLSCAVSGGTSSNYGMGWFRQAPGKEREFVSSISWSGSRTLYSDSVKGRFTISRDNAKNTVDLQMNSLKPEDTAVYYCTAVREYRDYPQRDNFDYWGQGTQVTVSHHHHHH
notes: Homodimeric tandem nanobody, short linker; also called Nb 5-5; Nb5-5
B8: anti-ORF1 Nb trimer Nb5-Nb5-Nb5 (MT996) (bispecific antibody)
chain: QVQLVESGGDLVQAGGSLRLSCAVSGGTSSNYGMGWFRQAPGKEREFVSSISWSGSRTLYSDSVKGRFTISRDNAKNTVDLQMNSLKPEDTAVYYCTAVREYRDYPQRDNFDYWGQGTQVTVSGGGGSGGGGSGGGGSGGGGSMAQVQLVESGGDLVQAGGSLRLSCAVSGGTSSNYGMGWFRQAPGKEREFVSSISWSGSRTLYSDSVKGRFTISRDNAKNTVDLQMNSLKPEDTAVYYCTAVREYRDYPQRDNFDYWGQGTQVTVSGGGGSGGGGSGGGGSGGGGSMAQVQLVESGGDLVQAGGSLRLSCAVSGGTSSNYGMGWFRQAPGKEREFVSSISWSGSRTLYSDSVKGRFTISRDNAKNTVDLQMNSLKPEDTAVYYCTAVREYRDYPQRDNFDYWGQGTQVTVSHHHHHH
notes: Homotrimeric tandem nanobody; also called Nb 5-5-5
B9: anti-ORF1 Nb dimer 6 Nb5-Nb5 long linker (MT997) (bispecific antibody)
chain: QVQLVESGGDLVQAGGSLRLSCAVSGGTSSNYGMGWFRQAPGKEREFVSSISWSGSRTLYSDSVKGRFTISRDNAKNTVDLQMNSLKPEDTAVYYCTAVREYRDYPQRDNFDYWGQGTQVTVSGGGGSGGGGSGGGGSGGGGSEAAAKEAAAKEAAAKSGGGGSGGGGSGGGGSGGGGSMAQVQLVESGGDLVQAGGSLRLSCAVSGGTSSNYGMGWFRQAPGKEREFVSSISWSGSRTLYSDSVKGRFTISRDNAKNTVDLQMNSLKPEDTAVYYCTAVREYRDYPQRDNFDYWGQGTQVTVSHHHHHH
notes: Homodimeric tandem nanobody, long linker of 56 residues; also called Nb 5-5 long; Nb5-5LL
B10: anti-ORF1 Nanobody 21 (Nb21) (VHH)
VHH: QVQLAESGGGLVQAGGSLRLSCAASGRTSTIYIMGWFRQAPGKDREFVAGITYTGGYPYYADSVQGRFTLSNDNADHTAYLQMNNLKPEDSAVYYCAARSRGGITTHERDFGSWGQGTQVTVSH
notes: Llama nanobody
B11: anti-ORF1 Nanobody 10 (Nb10) (VHH)
VHH: QVQLVESGGGLVQAGESLRLSCQVSGRTFSISGAGWFRQAPGKEREFVAAITWTGGYPYYATSVKGRFTIARDDPENRVYLSMNSLKPEDTAVYYCATRRAGSLDFDYAQQTRYDNWGQGTQVTVSH
notes: Llama nanobody
B12: 34H7 (antibody, V domains shown)
VH: QSLEESGGDLVKPGASLTLTCTASGFSLNNYVMYWVRQAPGKGLESIACIYTGSGTTYYATWAKGRFTISKTSSTTVTLQMTSLTAADTATYFCARRTYTSDSYAGSFNLWGPGTLVTVSS
VL: AYDMTQTPASVSEPVGGTVTIKCQASQSIGSNLAWYQQKPGQRPKLLIYAASYLASGAPSRFKGSGSGTEFTLTISGVQCDDAATYYCQQGWSSSDVDSTFGGGTEVVVK
notes: Rabbit monoclonal antibody; also called 34H7-1; 37H7
B13: 33A8 (antibody, V domains shown)
VH: QSLEESGGGLVQPEGSLTLTCKASGFSFINNNHICWVRQAPGKGLEWIACIYAGSTGYTYYANWAKGRFTISKTSSTTVTLQMTSLTAADTATYFCARVPYAGYVNYGYTFFNLWGPGTLVTVSS
VL: AAVLTQTPSPVSAPVGGTVTISCQSSQSVYRTNDLAWYQQKPGQPPKLLIYWASKLAAGVPSRFKGSGSGTQFTLTISGVQCDDAATYYCLGGYYDDGDLNAFGGGTEVVVN
notes: Rabbit monoclonal antibody; also called 33A8-1
B14: 34C5 (antibody, V domains shown)
VH: QSVEESGGRLVKPDESLTLTCTVSGFSLSAYEMGWVRQAPGKGLEWIAAISTGDTPYYATWTKGRFTISRASSTTVDLKMTSPTTEDTATYFCARYGHNYEYVFDLWGQGTLVTVSS
VL: AYDMTQTPASVSAAVGGTVTINCQASQSIGSYLSWYQQKPGQPPKLLIYSASTLASGVPSRFSGSGYGTEFTLTIGGVQCDDAAAYYCQQGESIGSVHNVFGGGTEVVVA
notes: Rabbit monoclonal antibody; also called 34C5-1
B15: 36D12 (antibody, V domains shown)
VH: QSVEESGGRLVTPGTPLTLTCTVSGFSLSTYAMGWFRQAPGKGLEWIGTIWSGAFTDYANWVNGRFTISKTSTTVDLKITSPTTEDTATYFCAREADSDLYTYFKLWGPGTLVTVSS
VL: AYDMTQTPASVEVAVGGTVTLKCQASESIEIYLAWYQQKPGQPPKLLVYDASTLASGVPSRFKGSGSGTQFTLTISGVECADAATYYCQQGYRSDNVHNVFGGGTEVVVK
notes: Rabbit monoclonal antibody; also called 36D12-1
B16: 42D10 (antibody, V domains shown)
VH: QSVEESGGRLVTPGTPLTLTCTVSGFSLSSYAMTWVRQAPGKGLEWIGYIYAGGIADYANWAKGRFTISKTSTTVDLTITSPTTEDTATYFCAREGDSDDYVYLSLWGPGTLVTVSS
VL: ALVMTQTPSSVSAAVGGTVTINCQASQSIVGYLAWYQQKPGQPPKLLIYRASTLASGVSSRFKGSGSGTEFTLTISGVQCADAATYYCQQGYINSNIDNTFGGGTEVVVK
notes: Rabbit monoclonal antibody; also called 42D10-1

The target in the first assay is T1, recombinant human ORF1p (LINE-1 open reading frame 1 protein, L1RP) (human, UniProt Q9UN81 1-338).
T1 construct: Expressed in E. coli, tag cleaved, monodisperse homotrimer; Immobilized on the CM5 chip in SPR; also called trimeric ORF1p
T1 sequence: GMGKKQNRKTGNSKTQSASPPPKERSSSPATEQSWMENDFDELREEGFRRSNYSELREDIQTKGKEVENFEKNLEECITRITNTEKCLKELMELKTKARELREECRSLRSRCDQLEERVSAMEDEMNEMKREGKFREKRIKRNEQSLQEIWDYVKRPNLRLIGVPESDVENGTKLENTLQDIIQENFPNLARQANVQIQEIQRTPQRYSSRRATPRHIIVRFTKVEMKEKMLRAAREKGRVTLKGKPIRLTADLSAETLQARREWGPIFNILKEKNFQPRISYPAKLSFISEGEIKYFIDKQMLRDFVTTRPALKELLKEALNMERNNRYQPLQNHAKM
Nature of the assay: SPR (Biacore 8K), ORF1p immobilized on CM5, single-cycle kinetics, 1:1 fit. The protocol: Surface plasmon resonance (SPR) assays. Binding kinetics (kₐ, kd, and KD) of antibody and nanobody constructs for ORF1p were obtained on a Biacore 8K instrument (Cytiva). Recombinant ORF1p was immobilized on a Series S CM5 sensor chip at 1.5 μg/ml using EDC/NHS coupling chemistry according to the manufacturer's guidelines. Nanobodies and antibodies were prepared as analytes and run in buffer containing 20 mM HEPES pH 7.4, 150 mM NaCl, and 0.05% Tween-20. Analytes were injected at 30 μl/min in single-cycle kinetics experiments at concentrations of 0.1, 0.3, 1, 3.3, and 10 nM, with association times of 120-180 sec, and a dissociation time of 1200-7200 sec, depending on observed off-rate. Residual bound protein was removed between experiments using 10 mM glycine-HCl pH 3.0. Data were analyzed using Biacore software, fitting a Langmuir 1:1 binding model to sensorgrams to calculate kinetic parameters.
A general note: SPR reads the build-up and loss of mass on a sensor chip optically.
For orientation: Kd means the concentration at which binding is half-saturated. Take B1: the Kd was determined as 0.0092 nM. For the molecule B2, the Kd is 0.19 nM.

Take B3: the Kd came out at 0.11 nM. The same measure, in the same setting: in the case of B4 it was 0.48 nM; in that of B5, 0.083 nM. On the same count and under the same terms, in the case of B6 it was 0.036 nM; in that of B7, 0.07 nM. As to B8, the Kd is 0.027 nM.

With B9, the Kd was found to be 0.0098 nM. The same measure, in the same setting: the same measure for B10: 0.24 nM; for B11: 0.19 nM.

The target of a further assay is T1, recombinant human ORF1p (LINE-1 open …). Nature of the assay: Simoa sandwich, recombinant ORF1p at 40 pg/mL in diluent buffer, signal/background heat map; capture on the x axis, detector on the y axis. The protocol: ORF1p Simoa assays. Simoa assays were performed on an HD-X Analyzer (Quanterix Corp.), with all assay reagents and consumables loaded onto the instrument according to the manufacturer's instructions. 250,000 capture beads and 250,000 helper (non-conjugated) beads were used in each Simoa assay. A three-step assay configuration was used for the first- and second-generation assays, consisting of a 15-minute target capture step (incubation of capture beads with 100 μL sample), 5-minute incubation with detector reagent (0.3 μg/mL for both first- and second-generation assays), and 5-minute incubation with streptavidin-β-galactosidase (150 pM for first-generation assay; 300 pM for second-generation assays). The beads were washed with System Wash Buffer 1 (Quanterix Corp.) after each assay step. Upon the final wash cycle, the beads were loaded together with the fluorogenic enzyme substrate resorufin β-D-galactopyranoside into a 216,000-microwell array, which was subsequently sealed with oil. Automated imaging and counting of “on” and “off” wells and calculation of average enzyme per bead (AEB) were performed by the instrument. Calibration curves were fit using a 4PL fit with a 1/y² weighting factor, and the limit of detection (LOD) was determined as three standard deviations above the blank.
Signal/background was also determined for a number of the pairs by Simoa using recombinant ORF1p protein in diluent buffer; the results are shown in FIG. 15. When the rabbit monoclonal antibodies were used as capture and detector, the background was high. The best combinations were the rabbit monoclonal antibodies as capture/Ab6 detector; Nb5-5 capture/rabbit monoclonal antibodies detector; and 4H1 capture/rabbit monoclonal antibody detector pairs.
Consider B12, for which the binding result is reported as “binds”. Still for that read-out and setting: in the case of B13 it was “binds”; in that of B14, “binds”. The same measure, in the same setting: the same measure for B15: “binds”.

With B16, the binding result is reported as “binds”.
